Test results from patent US20210206811A1.

Molecular target: retromer endogenous in HeLa cells (detected through its subunit Vps35) (UniProt Q96QK1)
Experiment: cell-based or functional assay

Sequence of retromer endogenous in HeLa cells (detected through its subunit Vps35) (O75436 whole entry): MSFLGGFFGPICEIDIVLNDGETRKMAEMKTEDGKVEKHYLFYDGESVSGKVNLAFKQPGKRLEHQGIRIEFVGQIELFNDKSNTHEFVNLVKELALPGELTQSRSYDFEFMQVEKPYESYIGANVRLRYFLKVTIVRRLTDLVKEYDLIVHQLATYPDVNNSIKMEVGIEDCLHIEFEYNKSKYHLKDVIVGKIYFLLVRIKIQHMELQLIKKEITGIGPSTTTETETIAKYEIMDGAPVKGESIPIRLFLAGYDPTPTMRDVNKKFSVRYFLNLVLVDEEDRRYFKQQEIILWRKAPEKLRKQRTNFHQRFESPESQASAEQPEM

## 3R mutant HPV16 pseudovirus (L2 with three arginines in place of RKRRKR) (from UniProt P03101 1-505)
  Vps35/L1 PLA signal: 75 % reduction
